Drawing on PMC4871238, this text covers percent of native pre-60S subunits carrying eIF6 for 1 substance.

The test deals with native Dictyostelium discoideum pre-60S ribosomal subunit (Dictyostelium discoideum) (UniProt P34113). The test can be described thus: cryo-EM structure.
Sequence of native Dictyostelium discoideum pre-60S ribosomal subunit (Dictyostelium discoideum) (P34113 whole entry, looked up, tested part not stated): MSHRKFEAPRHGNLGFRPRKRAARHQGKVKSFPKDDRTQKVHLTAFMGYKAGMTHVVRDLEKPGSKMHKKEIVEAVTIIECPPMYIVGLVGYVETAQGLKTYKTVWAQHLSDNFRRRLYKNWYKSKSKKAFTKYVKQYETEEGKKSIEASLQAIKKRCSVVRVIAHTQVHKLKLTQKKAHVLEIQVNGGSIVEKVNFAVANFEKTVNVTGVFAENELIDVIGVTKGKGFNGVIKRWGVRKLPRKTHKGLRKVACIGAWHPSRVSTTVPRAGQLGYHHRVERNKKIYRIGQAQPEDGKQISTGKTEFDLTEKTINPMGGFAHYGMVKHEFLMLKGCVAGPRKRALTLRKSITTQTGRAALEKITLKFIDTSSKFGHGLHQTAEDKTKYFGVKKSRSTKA

Sequence of Dictyostelium discoideum eIF6 (eukaryotic initiation factor 6), endogenous (Q551M2 whole entry): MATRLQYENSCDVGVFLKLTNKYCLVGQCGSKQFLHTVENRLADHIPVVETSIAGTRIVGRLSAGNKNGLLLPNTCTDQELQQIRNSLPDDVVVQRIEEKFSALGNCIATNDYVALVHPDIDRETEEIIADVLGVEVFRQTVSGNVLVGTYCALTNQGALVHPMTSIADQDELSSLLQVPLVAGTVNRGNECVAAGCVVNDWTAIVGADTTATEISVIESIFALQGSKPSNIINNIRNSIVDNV

Regarding “Dictyostelium discoideum eIF6 (eukaryotic initiation factor 6), endogenous (from UniProt Q551M2 1-244) (natural protein)”, the percent of native pre-60S subunits carrying eIF6 is 85%.
